The values that follow come from patent US20220204643A1 (published 2022).

For assay [1], the target named is T1, Atpase secretory pathway ca2+ transporting 1 (human, UniProt P98194 1-909).
T1 construct: HuProt array protein, full-length recombinant from yeast; also called ATP2C1
T1 sequence: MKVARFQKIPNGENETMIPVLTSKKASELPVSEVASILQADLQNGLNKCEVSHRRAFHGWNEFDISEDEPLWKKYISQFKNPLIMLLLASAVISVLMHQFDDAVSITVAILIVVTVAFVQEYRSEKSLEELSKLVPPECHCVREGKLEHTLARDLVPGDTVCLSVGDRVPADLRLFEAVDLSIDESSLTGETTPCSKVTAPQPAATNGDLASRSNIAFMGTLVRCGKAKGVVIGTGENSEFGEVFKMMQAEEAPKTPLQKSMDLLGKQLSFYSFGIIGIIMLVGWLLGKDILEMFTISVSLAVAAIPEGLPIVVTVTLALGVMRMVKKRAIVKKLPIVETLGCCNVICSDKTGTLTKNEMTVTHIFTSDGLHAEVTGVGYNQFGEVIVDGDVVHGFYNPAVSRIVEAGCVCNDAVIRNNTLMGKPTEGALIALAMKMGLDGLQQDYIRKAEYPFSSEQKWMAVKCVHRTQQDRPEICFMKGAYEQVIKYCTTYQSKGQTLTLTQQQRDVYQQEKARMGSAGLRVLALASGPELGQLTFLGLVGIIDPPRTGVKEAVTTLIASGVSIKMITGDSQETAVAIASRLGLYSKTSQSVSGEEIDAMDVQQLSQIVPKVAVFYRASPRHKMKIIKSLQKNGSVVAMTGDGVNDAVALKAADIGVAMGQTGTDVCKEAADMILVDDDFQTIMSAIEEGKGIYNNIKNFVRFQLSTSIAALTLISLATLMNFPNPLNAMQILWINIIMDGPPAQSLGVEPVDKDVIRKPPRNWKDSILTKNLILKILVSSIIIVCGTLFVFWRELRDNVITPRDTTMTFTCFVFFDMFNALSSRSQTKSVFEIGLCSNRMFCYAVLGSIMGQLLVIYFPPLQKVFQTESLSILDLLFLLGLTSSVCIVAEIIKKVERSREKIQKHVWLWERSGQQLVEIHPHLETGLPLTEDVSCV

Assay [2] concerns the target T2, teashirt zinc finger homeobox 2, transcript variant 1 (human, UniProt Q9NRE2 1-1034).
T2 construct: HuProt array protein, full-length recombinant from yeast; also called TSHZ2
T2 sequence: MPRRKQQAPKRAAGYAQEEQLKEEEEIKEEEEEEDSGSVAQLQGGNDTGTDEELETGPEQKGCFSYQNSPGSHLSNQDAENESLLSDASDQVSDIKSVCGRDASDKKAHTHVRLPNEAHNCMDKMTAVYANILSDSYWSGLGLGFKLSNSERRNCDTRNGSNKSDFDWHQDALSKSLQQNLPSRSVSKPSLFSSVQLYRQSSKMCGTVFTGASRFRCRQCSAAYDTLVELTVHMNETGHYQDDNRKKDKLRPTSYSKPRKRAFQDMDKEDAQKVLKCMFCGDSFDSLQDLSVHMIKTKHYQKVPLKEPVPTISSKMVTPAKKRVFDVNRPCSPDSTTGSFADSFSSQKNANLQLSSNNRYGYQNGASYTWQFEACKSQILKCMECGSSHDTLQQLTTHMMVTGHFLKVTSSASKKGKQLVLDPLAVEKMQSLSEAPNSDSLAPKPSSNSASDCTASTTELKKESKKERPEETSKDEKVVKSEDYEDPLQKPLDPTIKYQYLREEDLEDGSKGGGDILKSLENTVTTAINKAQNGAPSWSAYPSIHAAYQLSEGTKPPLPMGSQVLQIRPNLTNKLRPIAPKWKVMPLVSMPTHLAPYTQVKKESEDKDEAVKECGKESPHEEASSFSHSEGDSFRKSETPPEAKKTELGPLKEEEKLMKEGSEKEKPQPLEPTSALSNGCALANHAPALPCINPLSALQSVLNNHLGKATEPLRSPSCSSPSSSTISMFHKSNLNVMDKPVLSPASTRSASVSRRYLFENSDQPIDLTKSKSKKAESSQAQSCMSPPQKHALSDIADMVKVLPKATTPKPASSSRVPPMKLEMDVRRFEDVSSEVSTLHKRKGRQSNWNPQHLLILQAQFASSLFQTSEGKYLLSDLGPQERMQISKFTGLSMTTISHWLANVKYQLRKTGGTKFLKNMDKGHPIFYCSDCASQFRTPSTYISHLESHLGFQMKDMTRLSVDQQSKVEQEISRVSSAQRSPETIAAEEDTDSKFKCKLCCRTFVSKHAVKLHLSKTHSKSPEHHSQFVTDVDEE

In assay [3] the target is T3, RAD1 checkpoint DNA exonuclease, transcript variant 1 (human, UniProt O60671 1-282).
T3 construct: HuProt array protein, full-length recombinant from yeast
T3 sequence: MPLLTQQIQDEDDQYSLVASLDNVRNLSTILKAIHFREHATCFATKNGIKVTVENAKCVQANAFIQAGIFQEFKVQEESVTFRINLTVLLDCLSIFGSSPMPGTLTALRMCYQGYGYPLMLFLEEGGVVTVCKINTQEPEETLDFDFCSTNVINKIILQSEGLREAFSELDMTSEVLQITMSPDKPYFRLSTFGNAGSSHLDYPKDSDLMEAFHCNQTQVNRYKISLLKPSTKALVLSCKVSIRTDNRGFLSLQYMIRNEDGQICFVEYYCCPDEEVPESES

The target of assay [4] is T4, Microtubule associated scaffold protein 1 (human, UniProt Q9ULD2 875-1270).
T4 construct: HuProt array protein, full-length recombinant from yeast; also called MTUS1
T4 sequence: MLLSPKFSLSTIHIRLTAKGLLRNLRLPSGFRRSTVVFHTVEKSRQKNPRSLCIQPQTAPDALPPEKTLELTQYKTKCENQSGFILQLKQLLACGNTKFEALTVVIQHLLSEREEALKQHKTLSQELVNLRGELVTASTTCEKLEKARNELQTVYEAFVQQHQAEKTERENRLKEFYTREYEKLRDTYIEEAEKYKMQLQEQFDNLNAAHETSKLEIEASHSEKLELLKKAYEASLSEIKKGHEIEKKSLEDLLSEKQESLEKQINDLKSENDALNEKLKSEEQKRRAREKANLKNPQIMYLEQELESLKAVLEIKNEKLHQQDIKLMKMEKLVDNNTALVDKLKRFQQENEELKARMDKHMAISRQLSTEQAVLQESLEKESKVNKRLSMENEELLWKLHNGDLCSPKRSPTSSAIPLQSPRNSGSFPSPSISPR

The target in assay [5] is T5, NCCRP1, F-box associated domain containing (human, UniProt Q6ZVX7 1-275).
T5 construct: HuProt array protein, full-length recombinant from yeast
T5 sequence: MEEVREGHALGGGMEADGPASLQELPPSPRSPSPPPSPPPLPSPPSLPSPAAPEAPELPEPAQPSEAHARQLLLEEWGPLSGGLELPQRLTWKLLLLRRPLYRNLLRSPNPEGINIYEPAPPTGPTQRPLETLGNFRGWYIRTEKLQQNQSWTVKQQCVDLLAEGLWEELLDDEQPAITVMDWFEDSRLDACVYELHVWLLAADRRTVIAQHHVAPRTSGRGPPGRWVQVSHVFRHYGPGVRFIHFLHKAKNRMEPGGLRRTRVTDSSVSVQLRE

The target of assay [6] is T6, coiled-coil domain containing 102A, transcript variant X1 (human, UniProt Q96A19 1-550).
T6 construct: HuProt array protein, full-length recombinant from yeast; also called CCDC102A

In assay [7] the target is T7, RNA binding motif protein 47, transcript variant X10 (human, UniProt A0AV96 1-593).
T7 construct: HuProt array protein, full-length recombinant from yeast; also called RBM47
T7 sequence: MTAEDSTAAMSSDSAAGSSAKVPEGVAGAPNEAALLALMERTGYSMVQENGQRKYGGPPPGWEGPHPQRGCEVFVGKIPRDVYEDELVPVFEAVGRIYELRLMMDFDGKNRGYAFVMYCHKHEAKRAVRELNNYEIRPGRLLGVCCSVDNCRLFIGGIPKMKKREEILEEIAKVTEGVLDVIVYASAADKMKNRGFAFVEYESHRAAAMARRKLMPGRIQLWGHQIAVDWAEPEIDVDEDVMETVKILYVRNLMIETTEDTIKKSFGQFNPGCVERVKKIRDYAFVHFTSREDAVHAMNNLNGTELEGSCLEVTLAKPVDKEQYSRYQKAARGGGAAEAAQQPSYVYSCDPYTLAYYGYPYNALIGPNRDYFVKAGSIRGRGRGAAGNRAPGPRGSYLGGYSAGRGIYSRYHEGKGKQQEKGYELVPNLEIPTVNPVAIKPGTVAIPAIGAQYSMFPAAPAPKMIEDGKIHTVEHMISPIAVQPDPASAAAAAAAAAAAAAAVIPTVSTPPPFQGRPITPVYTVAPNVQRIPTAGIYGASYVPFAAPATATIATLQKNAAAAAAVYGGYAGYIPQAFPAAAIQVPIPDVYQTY

T6 sequence (Q96A19 other isoform, or with tags, fused parts or gaps mutant limits assumed): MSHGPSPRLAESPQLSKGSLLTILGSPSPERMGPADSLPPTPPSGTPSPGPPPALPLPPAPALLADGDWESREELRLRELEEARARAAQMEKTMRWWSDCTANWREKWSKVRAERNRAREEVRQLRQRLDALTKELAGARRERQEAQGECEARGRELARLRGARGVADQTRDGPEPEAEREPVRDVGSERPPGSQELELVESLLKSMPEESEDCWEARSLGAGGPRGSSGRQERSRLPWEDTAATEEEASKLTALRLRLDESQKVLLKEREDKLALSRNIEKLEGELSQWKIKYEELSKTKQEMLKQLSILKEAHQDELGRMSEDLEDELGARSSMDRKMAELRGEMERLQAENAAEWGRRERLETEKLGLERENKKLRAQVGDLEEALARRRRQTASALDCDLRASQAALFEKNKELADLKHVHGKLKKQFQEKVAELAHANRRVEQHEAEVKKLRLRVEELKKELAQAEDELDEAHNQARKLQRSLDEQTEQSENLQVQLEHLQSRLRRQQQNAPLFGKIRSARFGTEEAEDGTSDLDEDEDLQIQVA

B1: TESO1006 (antibody, V domains shown)
VH: QLHLQESGPGLVKPSETLSLTCTVSGGSVSSSSYYWGWVRQPPGKGLEWIGHVYYSGRTYYNPSLKSRATISLDTSKNQFSLKLSSLTATDTAVYYCATIVAAYSYGFEFDPWGQGILVIVSS
VL: QSVLTQPPSVSAAPGQKVTISCSGGSSNIGNNYVSWYQQLPGTAPKLIIYDNDKRPAGIPDRFSGSKSGSSATLGITGLQNGDEAEYYCGTWDSSLGGGVFGGGTKVTVLG
notes: detected with anti-human IgG Fc
As for B1, the binding result in assay [1] and in assay [2] was “binds” each time.

B2: THNS1006 (antibody, V domains shown)
VH: QVQLVESGGGVVQPGRSLRLSCAASGFTFSSYGMHWVRQAPGKGLEWVAIISYDGSNKYYADSVKGRFTISRDKSKNTLYLQMNSLRAEDTAVYYCAKSKGNYRDAMDVWGQGTTVTVSS
VL: SYVLTQPPSVSVAPGQTARITCGGNNIGSKSVHWYQQKPGQAPVLVVYDDSDRPSGIPERFSGSNSGNTATLTISRVEAGDEADYYCQVWDSSSDPWVFGGGTKLTVLG
notes: as for B1
Take B2: the binding result in assay [3] and in assay [4] was “binds” throughout.

B3: THNS1003 (antibody, V domains shown)
VH: VVQLVESGGGLVQPGGSLRLSCAASGFTFNNYEMNWVRQAPGKGLEWVSYISSSGSTIYYADSVKGRFTISRDNAKNSLYLQMNSLRAEDTAVYYCARQMVTTRGYWGQGTLVTVSS
VL: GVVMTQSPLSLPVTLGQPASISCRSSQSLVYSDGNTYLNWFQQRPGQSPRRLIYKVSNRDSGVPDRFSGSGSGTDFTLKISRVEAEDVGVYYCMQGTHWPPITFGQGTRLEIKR
notes: as for B1
For B3, the binding result in assay [5] and in assay [6] was “binds” throughout.

B4: THNS1004 (antibody, V domains shown)
VH: EVQLVESGGGLVQPGGSLRLSCAASGFTFSSNWMSWVRQAPGKGLEWVANIKEDGSEKYYVDSVKGRFTIFRDNAKNSLYLQMNSLRAEDTAVYYCARVPSRYGRSRGAFDIWGQGTMVTVSS
VL: DIQMTQSPSSLSASVGDRVTITCRASQSISSYLNWYQQKPGKAPKLLIYAASSLQSGVPSRFSGSGSGTDFTLAISSLQPEDFATYYCHQTYSTRLTFGGGTEVEIKR
notes: as for B1
Take B4: in assay [7], the binding result is recorded as “binds”.
